Legend:
[1] = biological target: T1, human CD22 on B cells of human PBMCs (human, UniProt P20273 20-847); experiment: flow cytometry; Alexa Fluor 647-labelled antibody on CD20+ B cells of human PBMCs
T1 construct: whole, on cells; also called CD22 on human B cells
Method: (§1) Binding of humanized anti-CD22 antibodies to human or cynomolgus PBMCs was measured by flow cytometry. Trima residuals were received from Vitalant and cynomolgus monkey whole blood were received from BioIVT. Both were diluted 1:4 with Phosphate Buffered Saline (PBS, Gibco). Diluted blood was split into two tubes and underplayed with 15 mL Ficoll-Paque (GE Healthcare). Tubes were centrifuged for 30 minutes at 400×g. PBMCs were collected from the interface, washed and resuspended in FACS buffer (PBS with 0.5% Bovine Serum Albumin (Gibco)). 100K PBMCs from human and cynomolgus monkey were plated in 96-well plates and pelleted by centrifugation for five minutes at 400×g and stained at 4° C. in 100 μl Fixable Viability Dye eFluor 780 (Thermo Fisher) diluted 1:4000 in PBS. Cells were centrifuged and stained at 4° C. in 100 μl FACS buffer for 30 minutes containing FcR Blocking Reagent (Miltenyi Biotec), anti-CD20 and Alexa Fluor 647 conjugated CD22 binding antibodies, which were labeled using Molecular Probes Alexa Fluor 647 Protein Labeling kit (Molecular Probes) according to manufacturer's protocol. Cells were centrifuged and washed twice in 200 μl FACS buffer and fixed in 100 μl 0.5% paraformaldehyde. Cells were analyzed on Attune NxT Flow Cytometer (Thermo Fisher), with subsequent data analysis by Flowjo 10.7 (Treestar). Dead cells were excluded by gating on the eFluor 780-negative population. CD20+ cells were gated to identify B cells and median fluorescent intensity for CD22 was determined.

[2] = biological target: T2, cynomolgus monkey CD22 on B cells of cynomolgus PBMCs (cynomolgus monkey); experiment: flow cytometry; Alexa Fluor 647-labelled antibody on CD20+ B cells of cynomolgus PBMCs
T2 construct: whole, on cells; also called cynomolgus CD22; Cyno CD22
Method: as §1

[3] = biological target: T3, human CD22 (d1 to d7 domain according to NP_001762.2) (human, UniProt P20273 20-687); experiment: SPR; purified naked mAb captured on protein A chip, human CD22 injected
T3 construct: domain: d1 to d7 domain; also called human CD22-gly; Siglec-2
Method: To assess if CpG conjugation affects the binding of respective humanized anti-CD22 to human CD22, SPR assay was carried out. […] Briefly, biotinylated protein A (15 μg/mL) was immobilized to the surface of an NLC chip. 30 nM of purified naked mAb or CpG conjugated mAb solution in PBS-T was used for capture over the protein A surface. Serial dilutions of human CD22 (300 nM, 3× dilution) were injected over the mAb-coated chips, and binding kinetics were determined. Chips were regenerated using 4:1 v/v of Pierce IgG elution butter/4M NaCl.

[4] = biological target: T3, human CD22 (d1 to d7 domain according …); experiment: SPR; mAb supernatant captured on protein A chip, human CD22 injected
Method: Binding of humanized anti-CD22 antibodies to human CD22 was measured by surface plasmon resonance (SPR). For assessment of binding by SPR, biotinylated protein A (15 μg/mL) was immobilized to the surface of an NLC chip. 30 μL of mAb supernatant was added to 150 μL of PBS-T and captured over the protein A surface. Serial dilutions of human CD22-gly (300 nM, 3× dilution) were injected over the mAb-coated chips, and binding kinetics were determined. Chips were regenerated using 4:1 v/v of Pierce IgG elution butter/4M NaCl.

[5] = biological target: T3, human CD22 (d1 to d7 domain according …); experiment: SPR; summary table, column 'CD22 KD (nM)'

Binder | CD22 Median Fluorescent Intensity on CD20+ cells [1] | CD22 Median Fluorescent Intensity on CD20+ cells [2] | Kd [3] [nM] | Kd [4] [nM] | Kd [5] [nM]
TNT71 (antibody, human IgG1, kappa, V domains shown) VH: EVQLVESGGGLVQPGGSLRLSCAASGFTFSSYEMNWVRQAPGKGLEWVSYISSSGSTIYYADSVKGRFTISRDNAKNSLYLQMNSLRAEDTAVYYCARHSGYGTHWGVLFAYWGRGTLVTVSS VL: DIQMTQSPSSLSASVGDRVTITCRASQDIHGYLNWYQQKPGKAPKLLIYYTSILHSGVPSRFSGSGSGTDFTLTISSLQPEDFATYFCQQGNTLPWTFGQGTKLEIKR | 1460 | 1420 | 0.263 | 5.2 | 0.3
TNT72 (antibody, human IgG1, kappa, V domains shown) VH: QVQLQESGPGLVKPSDTLSLTCTVSGFAFSIYDMSWIRQPPGKGLEWIAYISSGGGTTYYNPSLKSRVTISVDTSKNQFSLKLSSVTAADTAVYYCARHSGYGTHWGVLFAYWGRGTLVTVSS VL: DIQMTQSPSSLSASVGDRVTITCRASQDIHGYLNWYQQKPGKAPKLLIYYTSILHSGVPSRFSGSGSGTDFTLTISSLQPEDFATYFCQQGNTLPWTFGQGTKLEIKR | 1560 | 1370 | 0.922 | 0.655 | 0.7

Reference: patent publication US20220380768A1 (TALLAC THERAPEUTICS, published 2022)
